The numbers were not newly measured in article PMC5620257, which cites them from elsewhere.

Read-outs that look alike come from different tables or passages of the source.

Data set [1] addresses PD1 (Homo sapiens) (UniProt Q15116).
The target is the same in data set [2]. The source holds these as a separate data set.

UniProt Q15116, sequence (Q15116 25-170): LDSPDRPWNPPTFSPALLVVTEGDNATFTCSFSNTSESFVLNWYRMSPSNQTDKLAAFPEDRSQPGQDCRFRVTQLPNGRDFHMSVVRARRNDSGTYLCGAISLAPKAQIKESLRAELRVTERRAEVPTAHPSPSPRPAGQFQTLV

Consider PD-L1 (from UniProt Q9NZQ7), for which the figures for the Kd with PD1 (Homo sapiens) [1] and with PD1 (Homo sapiens) [2] were 0.77 µM and 26.6 µM, respectively.

For orientation: Kd means a measure of binding affinity in units of concentration.
